Results taken from publication PMC9605926, “Safety of [^177Lu]Lu-NeoB treatment: a preclinical study characterizing absorbed dose and acute, early, and late organ toxicity” (European Journal of Nuclear Medicine and Molecular Imaging, 2022).
“And” between values parts separate entries of the source, which are not always exact repeats. Equal entries are not always repeated. Where two headings read alike, the source gives them in different places.

Legend:
[1] = Biodistribution of [177Lu]Lu-NeoB in healthy Balb/c mice, single i.v. injection, organ uptake by gamma counter; type: in vivo; settings: male, mouse, pancreas, iv, total radioactivity, 1 h p.i., read-out: Pancreatic uptake
Description: Both the biodistribution and the radiotoxicity of [^177Lu]Lu-NeoB were studied after administration of 3 different dosages of the radioligand: 40 MBq/400 pmol [^177Lu]Lu-NeoB, 80 MBq/800 pmol [^177Lu]Lu-NeoB, and 120 MBq/1200 pmol [^177Lu]Lu-NeoB. The different dosages were acquired by diluting the stock [^177Lu]Lu-NeoB solution with PBS + kolliphor HS 15 (1 mg/mL). [^177Lu]Lu-NeoB was administered intravenously (tail) to conscious animals in a total volume of 200 µL.
Each dosage of [^177Lu]Lu-NeoB was injected in N = 15 healthy male animals. At 5 different time points post injection (p.i.) (t = 1, 4, 24, 48, and 96 h), 3 animals per dosage group were sacrificed, after which blood and organs were collected and measured to determine radioactivity uptake.
Since in the radiotoxicity studies animals received 3 injections of the radioligand at 1-week intervals, an additional group of 3 male animals were injected twice with 120 MBq/1200 pmol [^177Lu]Lu-NeoB at a 7 days (168 h) interval. […] In addition, to determine the amount of radioactivity remaining in the blood and organs right before a second injection, 3 additional male animals were injected with 40 MBq/400 pmol [^177Lu]Lu-NeoB and the biodistribution was determined at t = 168 h. […]
In the biodistribution study, the adrenal glands, brain, intestines, heart, kidneys, liver, lungs, mammary fat pad, pancreas, muscle, spleen, stomach, prostate gland (M), testes (M), ovaries (F), and urinary bladder were collected, weighed, and measured for radioactivity uptake using a gamma counter (1480 WIZARD automatic γ counter; PerkinElmer). To calculate the percentage injected activity (%IA), a vial containing 200 µL of a 1:1000 dilution of the injected [^177Lu]Lu-NeoB solutions was also measured in the gamma counter. The %IA of all organs and tumor was corrected for the percentage of radioactivity left measured in the tail (injection site).

healthy Balb/c mice = assay: Toxicity study, hematology (same groups as A3); type: in vivo, mouse; settings: 5, 11, 19, 30, 43 wk, mean±SD
Description: Five different experimental groups (10 male and 10 female healthy animals per group; n = 100) were included in the radiotoxicity study and treated as follows: control group 1: 3 × vehicle (PBS + kolliphor HS 15 (1 mg/mL)); control group 2: 3 × 1200 pmol [^175Lu]Lu-NeoB; treatment group 1: 3 × 40 MBq/400 pmol [^177Lu]Lu-NeoB; treatment group 2: 3 × 80 MBq/800 pmol [^177Lu]Lu-NeoB; and treatment group 3: 3 × 120 MBq/1200 pmol [^177Lu]Lu-NeoB.
Animals received 3 injections with an interval of 7 days between each injection.
(§1) Throughout the study, the animals were observed daily to check for physical signs of toxicity and signs of discomfort, and animals were weighed 2–3 times per week. Furthermore, at week -1, 5, 11, 19, 30, and 43, blood samples were collected by submandibular puncture from all animals that were in the study at that time point. All blood samples were analyzed for hematological parameters (hematocrit; hemoglobin; red blood cell count; white blood cell count; hemoglobin; mean cell hemoglobin concentration; mean cell volume; platelet count) on the scilVet abc + counter (Covetrus).

mouse kidneys = assay: Binary logistic regression of absorbed kidney dose versus renal histopathology; type: in vivo; settings: 19 weeks, males and females combined, n = 30; 95% CI: 6.66–11.18 Gy
Description: (§2) Statistical analysis was performed using GraphPad PRISM software (version 5). Significance levels were set at 5%. A simple binary logistic regression analysis was performed to determine a dose–effect relation between the absorbed dose and the histopathological findings in the kidneys using the log-likelihood ratio test as a significance indicator. The weight gain over time of control group 2 and treatment groups 1, 2, and 3 was compared to control group 1 by performing a two-way multiple comparison analysis of variance (ANOVA) with a Bonferroni correction. Significant outliers in the blood values set were detected with the Grubbs’ test and excluded from the data set. At a given time point, the measurements of all study groups were compared by performing a one-way ANOVA and in case of significance a Tukey test to correct for multiple comparisons. All data are represented as mean ± standard deviation (SD).
Binary logistic regression analysis was performed to determine a dose–effect relationship for the incidence of renal toxicity (Fig. 5).

[2] = Toxicity study, body weight (same groups as A3); type: in vivo, mouse
Description: as §1, §2

pancreas = settings: 100 days after once weekly for 3 consecutive weeks 37 MBq/400 pmol; cited from earlier work
Text: As mentioned above, the GRPR-expressing pancreas is often named as a potential dose-limiting organ for GRPR-targeting radionuclide therapy. Pancreatitis can be diagnosed by an increase in serum lipase and amylase levels, neither of which were consistently found in this study. Furthermore, no histopathological signs of continuous or severe pancreatic toxicity was observed.

In the case of `CC(C)CC(CC(C)C)NC(=O)[C@H](Cc1cnc[nH]1)NC(=O)CNC(=O)[C@@H](NC(=O)[C@H](C)NC(=O)[C@H](Cc1c[nH]c2ccccc12)NC(=O)[C@H](CCC(N)=O)NC(=O)[C@@H](Cc1ccccc1)NC(=O)COCC(=O)Nc1ccc(CNC(=O)CN2CCN(CC(=O)O)CCN(CC(=O)O)CCN(CC(=O)O)CC2)cc1)C(C)C` [[^177Lu]Lu-NeoB, metal not drawn], the tissue uptake at 1 h ([1]; 40 MBq/400 pmol) is reported as 8.27 ± 0.8 %ID/g, the tissue uptake at 1 h ([1]; 80 MBq/800 pmol) is reported as 4.05 ± 0.4 %ID/g and the tissue uptake at 1 h ([1]; 120 MBq/1200 pmol) is reported as 1.79 ± 0.2 %ID/g. The WBC (healthy Balb/c mice; female, treatment group 1) was 6.20 ± 2.24 103/mm3 and 7.60 ± 3.77 103/mm3 and 6.80 ± 1.64 103/mm3 and 9.70 ± 2.96 103/mm3 and 7.20 ± 3.97 103/mm3, the WBC (healthy Balb/c mice; female, treatment group 2) was 9.10 ± 3.17 103/mm3 and 5.89 ± 2.56 103/mm3 and 7.97 ± 2.09 103/mm3 and 6.74 ± 1.77 103/mm3 and 8.98 ± 1.67 103/mm3 and the WBC (healthy Balb/c mice; male, treatment group 1) was 8.08 ± 2.38 103/mm3 and 8.53 ± 1.17 103/mm3 and 8.12 ± 1.98 103/mm3 and 9.77 ± 2.82 103/mm3 and 7.53 ± 0.83 103/mm3. The WBC (healthy Balb/c mice; male, treatment group 2) was 7.30 ± 2.24 103/mm3 and 6.65 ± 2.80 103/mm3 and 9.61 ± 1.52 103/mm3 and 8.68 ± 0.34 103/mm3 and 11.13 ± 3.50 103/mm3, the “ED50 of absorbed kidney dose for hydronephrosis” value (mouse kidneys) was 8.65 Gy and the “Weight gain versus control group 1” value ([2]; female treatment group 2, by the end of the study) was “significantly higher weight gain”. The “Weight gain versus control groups” value ([2]; male treatment group 2, first half of the study) was “significantly less pronounced weight gain”, the “Weight gain versus control groups” value ([2]; male treatment group 3, first half of the study) was “significantly less pronounced weight gain” and the Pancreatic alterations (pancreas) was “no pancreatic alterations”.
